Assay results from US20120207670A1.

Target: IL-12 (mouse; target of the rat anti-mouse antibodies in the in vitro neutralization studies) (mouse) (UniProt P43432)
Assay: cell-based or functional assay

Chain of IL-12 (mouse; target of the rat anti-mouse antibodies in the in vitro neutralization studies) (mouse) (P43432 23-335, chain 1 of 2): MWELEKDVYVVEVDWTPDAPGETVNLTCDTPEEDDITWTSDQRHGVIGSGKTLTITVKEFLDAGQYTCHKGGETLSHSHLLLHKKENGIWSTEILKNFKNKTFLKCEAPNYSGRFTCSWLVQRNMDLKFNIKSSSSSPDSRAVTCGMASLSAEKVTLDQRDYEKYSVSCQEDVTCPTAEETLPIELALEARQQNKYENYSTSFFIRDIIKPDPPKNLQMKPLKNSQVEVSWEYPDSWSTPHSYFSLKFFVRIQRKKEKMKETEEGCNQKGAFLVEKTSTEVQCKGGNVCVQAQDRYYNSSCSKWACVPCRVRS
Chain of IL-12 (mouse; target of the rat anti-mouse antibodies in the in vitro neutralization studies) (mouse) (P43431 23-215, chain 2 of 2, further chain): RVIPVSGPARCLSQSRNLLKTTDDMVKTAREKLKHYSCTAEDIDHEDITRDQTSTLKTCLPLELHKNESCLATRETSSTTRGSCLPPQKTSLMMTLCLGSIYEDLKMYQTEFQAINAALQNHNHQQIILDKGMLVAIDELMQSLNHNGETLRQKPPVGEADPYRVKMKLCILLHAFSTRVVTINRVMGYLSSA

C17.8 (rat anti-mouse IL-12/IL-23p40, IgG2a) (antibody)
in vitro neutralization of IL-12 (fold (against anti-p35 mAb C18.2)): 5
